Target: recombinant human renin (human) (UniProt P00797)
UniProt P00797, sequence (P00797 67-406): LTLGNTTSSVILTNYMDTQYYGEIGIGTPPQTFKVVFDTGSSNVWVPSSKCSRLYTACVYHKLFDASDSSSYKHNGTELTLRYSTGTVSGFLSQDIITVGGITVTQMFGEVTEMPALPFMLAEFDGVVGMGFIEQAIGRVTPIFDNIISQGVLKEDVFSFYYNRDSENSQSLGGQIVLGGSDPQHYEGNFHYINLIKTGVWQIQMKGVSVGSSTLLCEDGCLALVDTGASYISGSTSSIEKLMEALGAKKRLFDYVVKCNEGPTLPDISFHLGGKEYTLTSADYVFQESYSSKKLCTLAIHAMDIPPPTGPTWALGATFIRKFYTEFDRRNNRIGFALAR

- Km (steady-state kinetics of human renin, 25 pM, with 0-0.4 μM oANG at 37 °C, pH 7.2; angiotensin I generated, measured by ELISA; Hanes-Woolf plot): 0.072 μM
Substance: recombinant ovine angiotensinogen expressed in CHO cells (natural protein)
